Publication doi:10.1101/2024.03.09.584257

Target: ICP1 Cas1 (Vibrio cholerae phage ICP1_2011_A)

## ICP1 Cas1 (natural protein)
  stoichiometry N: 2
